According to article PMC7170509, “Substrate recognition and ATPase activity of the E. coli cysteine/cystine ABC transporter YecSC-FliY” (The Journal of Biological Chemistry, 2020):

Columns and labels:
FliY [1] = biological target: T1, FliY (Escherichia coli, UniProt P0AEM9); test: isothermal titration calorimetry; format: binding
T1 construct: gene tcyJ; C-terminal His6 tag (pET21b); expressed in E. coli BL21-Gold(DE3), purified from osmotic shock extract; monomer

FliY [2] = biological target: T1, FliY; test: nanoDSF thermal shift; format: binding; conditions: 30 μM FliY, 200 μM ligand; 50 mM Tris-HCl pH 7.5, 250 mM NaCl
[3] = biological target: T2, YecSC, the E. coli cysteine/cystine ABC transporter (YecS transmembrane domain and YecC nucleotide-binding … (E. coli, UniProt P0AFT2 1-222; P37774 1-250); test: cell-based or functional assay
T2 sequence (looked up) 1: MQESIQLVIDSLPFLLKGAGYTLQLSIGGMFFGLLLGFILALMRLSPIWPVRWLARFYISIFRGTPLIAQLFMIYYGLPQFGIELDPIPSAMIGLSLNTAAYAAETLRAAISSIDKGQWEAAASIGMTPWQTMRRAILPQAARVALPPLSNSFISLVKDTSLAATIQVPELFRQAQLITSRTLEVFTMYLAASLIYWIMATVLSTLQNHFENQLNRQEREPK
T2 sequence (looked up) 2: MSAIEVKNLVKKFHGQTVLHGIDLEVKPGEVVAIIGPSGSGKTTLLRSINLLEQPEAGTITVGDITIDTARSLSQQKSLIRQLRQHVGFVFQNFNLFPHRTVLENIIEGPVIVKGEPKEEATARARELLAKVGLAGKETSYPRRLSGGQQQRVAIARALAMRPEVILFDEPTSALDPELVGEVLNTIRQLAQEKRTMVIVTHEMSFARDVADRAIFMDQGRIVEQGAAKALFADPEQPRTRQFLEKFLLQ

N[C@H](CS)C(=O)O [D-cysteine]
Kd (FliY [1]): 10 ± 3.4 µM

N[C@@H](CS)C(=O)O [L-cysteine]
Kd (FliY [1]): 14.4 ± 2.4 µM

N[C@@H](CSSC[C@H](N)C(=O)O)C(=O)O [L-cystine]
Kd (FliY [1]): 9.3 ± 2.8 µM
dTm (FliY [2]): the L-enantiomer of its oxidized dimeric form (Cys-S-S-Cys, cystine) also led to thermostabilization of FliY

B1: FliY, the substrate-binding protein (SBP) of the E. coli YecSC-FliY cysteine/cystine ABC import system (natural protein, UniProt P0AEM9 30-266, looked up)
chain: DEGLLNKVKERGTLLVGLEGTYPPFSFQGDDGKLTGFEVEFAQQLAKHLGVEASLKPTKWDGMLASLDSKRIDVVINQVTISDERKKKYDFSTPYTISGIQALVKKGNEGTIKTADDLKGKKVGVGLGTNYEEWLRQNVQGVDVRTYDDDPTKYQDLRVGRIDAILVDRLAALDLVKKTNDTLAVTGEAFSRQESGVALRKGNEDLLKAVNDAIAEMQKDGTLQALSEKWFGADVTK
apparent Km for FliY of the stimulation of ATP hydrolysis by 1 μM YecSC (0.25–20 μM FliY), in the absence of substrate (apo FliY) [3]: 10.3 µM
apparent Km for FliY of the stimulation of ATP hydrolysis by 1 μM YecSC (0.25–20 μM FliY), in the presence of 100 μM L-cystine (holo FliY) [3]: 1.1 µM
interaction ratio from the Michaelis–Menten fit of initial ATPase rates of YecSC against FliY concentration, without and with L-cystine [3]: 1 FliY:YecSC
stimulation of the ATPase activity of YecSC by FliY with L-cystine, over basal activity [3]: ~11 fold
stimulation of the ATPase activity of YecSC by substrate-free apo FliY, over basal activity [3]: ~3 fold
